Test results published in the supplement of paper PMC12042874.
± gives the uncertainty stated by the source.

Experiment: amyloid nucleation score (Sup35N fusion, yeast selection) (log enrichment); library NNK1; higher = more nucleation; inactive = no reads after selection
Method in brief: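 Peptides of 20 random codons, each fused to Sup35N, were expressed in psi-negative yeast. Cells were induced with 100 μM copper sulfate for 24 hours and grown 7 days at 30°C on medium lacking adenine and uracil, and plasmid inserts before and after selection were Illumina-sequenced. Nucleation scores are DiMSum log enrichments of output over input reads, centred on the mode score of non-aggregating sequences, and sequences under 100 input reads were excluded.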

| Substance | amyloid nucleation score |
| --- | --- |
| MRAEVALFCGNSASVVCGAW | -0.221 ± 0.34 |
| RPCFGFLGYNNAV | 0.109 ± 1.4 |
| WRSVPRASFRNWSLWDPLYT | 0.453 ± 0.29 |
| VLCAGLPWYTELVRFSYWAD | -0.642 ± 0.56 |
| SIQNPLNLVDNLPTT | -0.114 ± 0.21 |
| WQCDLNDLLVCTFSMLGYGR | -1.05 ± 1.7 |
| WTSSVFSIAHPVRYVRFYAV | 0.307 ± 0.54 |
| NMGNLFNICETGNLL | 0.296 ± 0.66 |
| IGDDLLGVFLYIETNSTPVF | 0.655 ± 0.74 |
| LPCHWVHVQGHHWLRLDVMC | 0.2 ± 0.64 |
| SKSSRTFLVFSLVWVYNLLM | 1.73 ± 0.19 |
| REYETWLQSQRQNLSDLQK | 0.173 ± 0.33 |
| VGLGYYNSSK | 0.91 ± 0.51 |
| CFSQPHGAVANHNAFSDNPW | -0.289 ± 0.39 |
| LIFLLSQSIVVMQWSGRKKQ | inactive |
| IYSNEELIMRVVNQY | 0.856 ± 0.58 |
| LYNLGHDSVGDLSFFCLRGW | -0.427 ± 0.36 |
| VILECNVAGVGELAQCQCAG | 0.986 ± 0.59 |
| RDMVKLHVHTLHCNDDILGL | -0.896 ± 0.62 |
| PYLGNLNSLQGFYLS | 0.176 ± 0.78 |
| WSCLSSLRDLGNGGYMM | 0.05 ± 0.62 |
| WFFVDSVYIRNKFSLEKGSA | 7.494 ± 0.052 |
| CEVAQCHYLVVWFCAWAWRY | 0.939 ± 0.68 |
| SSLVATPLGLELIKGRSSSL | 0.57 ± 1.2 |
| RIVQLFSRRNMRCFFIKE | 3.07 ± 0.09 |

| Substance | amyloid nucleation score |
| --- | --- |
| CDVRLPF | 0.249 ± 0.61 |
| SHCYSLGMLKVWLGQIKTFG | 1.8 ± 0.27 |
| ILICKSVRVQYTLSKLW | 1.8 ± 0.17 |
| IFTFQLLFRNSQRSMYSSVL | 0.651 ± 0.63 |
| VWLPYIFIDTSY | inactive |
| VQGYKVRLSGRNFGCNCASK | -1.85 ± 1.8 |
| SIDCLCYYAPRLFRMHVELT | -0.656 ± 0.89 |
| ESAFHASVGALRMHTSSRVC | 1.09 ± 0.35 |
| VLIGIWLHLGHFEPALSM | -0.133 ± 0.53 |
| RRRIEHAALVCV | 0.055 ± 1.1 |
| TDAQWGIFYDENIYPLDVFC | 0.075 ± 0.33 |
| ITDCPCRGISVCVV | -0.288 ± 0.26 |
| DEDDSD | 0.471 ± 0.46 |
| RQMRPLGRGPS | -0.169 ± 0.84 |
| GNVYVKISVTVFADDYVLRV | 3.81 ± 0.11 |
| SSLVKTS | -0.44 ± 0.47 |
| VCTCIFRFQFLILCVRVCEL | 0.293 ± 0.85 |
| ALPHSKFKAMVFRSLWRDRG | 0.51 ± 1.2 |
| CLFLIKKHVNNDMGSVRRLS | 0.317 ± 0.71 |
| AFLLEMKTKAATPRCYLRDM | 0.532 ± 0.85 |
| VFLSIGTERMILLIVWHCLN | -0.34 ± 0.57 |
| PMFSSGLT | 0.099 ± 0.42 |
| FLNYVMDVLGGRIRDVWWFT | 0.829 ± 0.66 |
| NYTNCTSTDRI | 0.907 ± 0.56 |
| NSCWVEKSNTV | 0.043 ± 0.62 |

| Substance | amyloid nucleation score |
| --- | --- |
| LSYRCVVYSVMIWSDIRALV | 0.655 ± 0.3 |
| LSSRFAWCIWGET | 0.956 ± 0.73 |
| RVCMLLYCQVKVGTVN | 2.3 ± 0.11 |
| QFRCFHLL | -0.026 ± 1.2 |
| TFPGSHLFTFLMMEGSLNHG | 0.694 ± 0.64 |
| DSFQGRS | 0.255 ± 0.47 |
| SMRIFMMLQWYRGSNLCFFH | 0.537 ± 1.1 |
| LMVISYRCDATGRRRVSLD | 0.867 ± 0.25 |
| SFANVGSVGWAMYSGYTSRT | 0.002 ± 0.84 |
| LLCYMRGYPSCL | 0.512 ± 0.36 |
| RTIIDESVTAFLIWFCYVTV | -0.21 ± 0.26 |
| SNFGIIYM | inactive |
| LSPGRYFDSPL | 0.589 ± 0.77 |
| WWNIEEM | -0.271 ± 0.24 |
| AGDTMAVWLPHQKRGGCFEM | -0.815 ± 1.2 |
| GYWGPVFSGRCIPVNNK | -0.186 ± 1.5 |
| TVLNFKAQYRSSPMLAH | 0.862 ± 0.39 |
| SCVQRVLSIVNSFGRRSQTR | 0.269 ± 0.43 |
| KTRLSWYWKITCLLHSMKFS | -0.12 ± 0.4 |
| WKDRPRVCLFMLLNENGRQM | -0.831 ± 1.2 |
| GGVGLDWLEVVFVCTRGQYD | inactive |
| LLSVF | 0.484 ± 0.74 |
| KSGDMWW | 0.087 ± 0.37 |
| SSLKDSNLWSEIGTLWLTVM | -0.091 ± 0.25 |
| VFGHIGIDRGI | 2.74 ± 0.22 |

| Substance | amyloid nucleation score |
| --- | --- |
| WNQIAYNYRMLMLYFVTHYW | 0.327 ± 0.5 |
| QVTRDGSYVGCGGGRRREMC | -0.359 ± 1.9 |
| QYSVHINNVTLRPKHRYVQ | -0.065 ± 0.29 |
| TKMVWASALWAHSPVMY | 0.724 ± 1.2 |
| FRTHRPTIFHFIGMRLRTLA | 0.399 ± 0.91 |
| FKCKSDAPWPWLHSL | 1.37 ± 0.45 |
| CPRTWFLENNRVTIMHFYRG | 6.67 ± 0.08 |
| ILFDSHANFVGMSCQYRSGR | 5.72 ± 0.1 |
| LDFKDSGLYLPYKGNYGSV | 0.378 ± 0.68 |
| VRRQFVPKSYLCCESYFNEV | 0.32 ± 0.56 |
| LISACDRSPSVIPI | 0.252 ± 0.37 |
| SWTKVHLLVQAL | -1.14 ± 0.86 |
| AFVLDIYMGMRSRYNDAPS | 1.78 ± 0.31 |
| QGKKPGGFQNEDMVVVLKWR | -0.601 ± 0.46 |
| LGASGLGCIF | 4.56 ± 0.055 |
| IMKSFMDATYVSCFWILMPA | 1.57 ± 0.53 |
| SVKYMVIDFQLKRMEVVINK | 0.354 ± 0.36 |
| YMCTLRGGGSDCTWAYPKWG | 0.275 ± 0.48 |
| SYLTGAEFFSTVRK | -0.745 ± 1.7 |
| LTFMFTTRIA | -0.912 ± 1.1 |
| HYIPRRN | -0.016 ± 1.7 |
| RTDFLMFIGCVMNKICTLKA | 0.73 ± 0.33 |
| LRNAMVMSLYN | -0.423 ± 0.72 |
| WMTHWVLSYTTNLLIWVHGW | 0.005 ± 1.2 |
| HCRYMMSRVILSCILARPQ | 2.55 ± 0.15 |

| Substance | amyloid nucleation score |
| --- | --- |
| YAYYLSDRVCFD | 0.303 ± 0.4 |
| QGKISGNRRSFFWW | -0.765 ± 0.44 |
| VAITCLKIANGDRGVLQTLC | 0.264 ± 0.86 |
| RMMLVV | -0.181 ± 0.37 |
| MFDTRDRMAALTFVKRMWCK | inactive |
| NGCLITSWDYCSCRAVYQLT | -0.602 ± 0.39 |
| TSHAVFNTVINLVVFVDQHC | 8.111 ± 0.055 |
| LRSSVSFGQLSRNPHAGSSH | -1.4 ± 1.4 |
| RFWAACSFTDGR | 1.71 ± 0.13 |
| YWRKLQYRMAGN | 0.265 ± 0.64 |
| CSQLLKLTQSAYLFFVNQDS | 0.676 ± 0.52 |
| SFLSSGINRSRCY | 0.154 ± 0.32 |
| SWNLGADIAMDDHVESV | 0.601 ± 0.39 |
| HLCVTTGSSLL | -0.58 ± 0.98 |
| SRMLAVKFKLVVTNCCVKLI | -0.598 ± 1.4 |
| WGDLHRMVMISREVEPVSNI | -0.361 ± 0.78 |
| IKHLKNMGFCVRESLYSDRF | -0.042 ± 0.59 |
| CRVLWQWNSKLGCFAAALNL | -0.326 ± 0.63 |
| GMLISTSIMHNES | 0.164 ± 0.4 |
| RSRLPGCDFVPLYEVH | -0.472 ± 0.44 |
| SRLEKKGNWPVYSTQAVWMT | -0.421 ± 0.42 |
| AKEVLYFR | 0.505 ± 0.24 |
| ICFNFYITYSASDALSRTCY | 8.287 ± 0.047 |
| TFECIIWFLGATVMSMQLFI | 1.93 ± 0.62 |
| YFISVVFASGKGW | -0.387 ± 0.8 |

| Substance | amyloid nucleation score |
| --- | --- |
| LVNNSSCYHCQRLGQLEVNK | 0.215 ± 0.33 |
| LLLLHLWLALRGLSDCSSHV | 0.626 ± 0.87 |
| INIGFMKGV | 0.416 ± 0.61 |
| ILCIESLSGFPWLICIENSL | 0.135 ± 0.39 |
| IFCYMNYGS | 0.554 ± 0.51 |
| TYALITADI | 0.193 ± 0.18 |
| MYCITDEVNRYKCCKTGKEF | 0.634 ± 0.32 |
| RSLNPVISFLN | -0.329 ± 0.69 |
| HRTDYENFPSSKSRRMLVRV | 0.436 ± 1.2 |
| RLTECSYCCNSDYITHMELL | -0.317 ± 0.29 |
| REGWLITWRFNSW | inactive |
| QYVPNETVDI | 1.4 ± 0.25 |
| VMSSMMWYSYHMFHPYNAFE | 1.28 ± 0.79 |
| SVYKVPVVYGINTRFYFSES | 1.18 ± 0.33 |
| YATDCLLVSFGTSGECIHRL | inactive |
| TYTGFYCVRKLILVRRVSVW | -0.897 ± 1.6 |
| VGHSEIKMTMTRLADLGVCE | 0.612 ± 0.62 |
| VEVSWAAQST | 0.506 ± 0.91 |
| CPLRIIQLMCTNRGLMGRLG | -0.071 ± 0.31 |
| MVDSVMD | -0.21 ± 0.79 |
| HHSYKYCKLAFWTRSSKWNR | 0.7 ± 0.71 |
| AYCVAHTYCMSGMRYIADWV | 0.421 ± 0.31 |
| WPCPVVRFLPWKNYISGYSF | 0.392 ± 0.64 |
| LLFRNYHMGDLEHLFIFYWY | 0.475 ± 0.56 |
| DLFDIDLRYFLLRVFKGCP | 0.579 ± 0.46 |

| Substance | amyloid nucleation score |
| --- | --- |
| SHTYG | 0.06 ± 0.59 |
| IMPSCKLLAAHVADYVFLMR | 0.863 ± 0.84 |
| CLARNSYPDVFRSETGKEAV | -0.093 ± 0.7 |
| RSLFLDCS | -0.475 ± 0.91 |
| DGSNRHLSRSMVGRGRT | 0.335 ± 0.8 |
| VGSRLQRHGDGTGSLGLSWC | inactive |
| STLSVLLSWQN | 0.01 ± 0.41 |
| WNRFRIMQLDITG | 0.103 ± 0.22 |
| SDALPVYVEFREGGKSRGWT | -0.916 ± 1.1 |
| YGVVYNIWHFIEMKGDYTHA | 6.869 ± 0.055 |
| TVTGIAKFHVVSQANY | -0.3 ± 0.98 |
| VVDVHVSFRCLFKMGV | 1.51 ± 0.4 |
| WSNTCRASYFRPCGCG | 0.391 ± 0.39 |
| WETWYSVCYAIEIRSYKIRV | -1.3 ± 1 |
| VLLGELIL | 0.434 ± 0.56 |
| CGADVNVWMTIWHYLFIDRG | inactive |
| YSSNWIMLIIRVMIHFFSSR | 3.46 ± 0.17 |
| WTVMVNICLGHCRVLSQLVP | 1.79 ± 0.24 |
| RWTEKGK | -0.332 ± 1.9 |
| CCVRACFPWNVLCKEMIFTR | -0.663 ± 1.6 |
| SAGGHSLSVTYWSGCSLRTV | 0.272 ± 0.23 |
| KNFRRYWGPSLIEIG | 1.13 ± 0.85 |
